In patent publication US20160194388A1 (WASHINGTON UNIVERSITY, published 2016):

Assays:
[1] = biological target: T1, peptide comprising amino acids 145-162 of 14-3-3 epsilon SV (human); experiment: ELISA, peptide coated, 7D4 at 5 µg/ml
T1 construct: Synthetic 18-mer (Sigma), coated on the ELISA plate
T1 peptide: HPIRLGLALNFSVFYYEI
Description: (§1) Two batches of purified anti 14-3-3 epsilon monoclonal antibody 7D4 were used for testing all 31 peptides by ELISA. Three concentrations of each peptide had been used for coating ELISA plate at 30, 15, 10 μg/mL, 50 μl/each well were reacted against diluted purified antibodies at same concentration in all assay. Similar results were obtained for each peptide concentration coated on the ELISA plate.
(§2) Human 14-3-3 Protein epsilon and its isoform SV whole amino acid sequences were obtained through UniProtKB/Swiss-Prot. The Taxonomic identifier 9606 (NCBI) organism is Homosapiens (Human), Gene name is YWHAE. Peptide designed from whole sequences of 14-3-3 protein epsilon and its isoform 14-3-3 protein epsilon SV. The designed peptides contain 18AA from N terminal to C terminal and had 2AA overlapped in each peptide. A total of 31 peptides synthesized by Sigma. The synthesized peptide was prepared in DMSO and then further diluted in PBS for coating an ELISA plate. 30 μg/ml and 10 μg/ml of peptides in PBS were coated on ELISA plates, 50 μL/well. The plates incubated overnight at 4° C., were washed with 0.1% Tween20 PBS and blocked with 3% BSA in same buffer for 1 hour. […] After washing again, substrate ABTS was added to each well to monitor color change by reading at 405 nm in an ELISA reader (Bio-Tek Instrument Inc.). […]

[2] = biological target: T2, peptide comprising amino acids 177-194 of 14-3-3 epsilon isoform 1 (human); experiment: ELISA, peptide coated, 7D4 at 5 µg/ml
T2 construct: Synthetic 18-mer (Sigma), coated on the ELISA plate
T2 peptide: FSVFYYEILNSPDRACRL
Description: as §1, §2

[3] = biological target: T3, human 14-3-3 epsilon isoform 1 (human, UniProt P62258 1-255); experiment: FMAT on H23 cells, hybridoma supernatant
T3 construct: Endogenous protein of H23 human lung cancer cells; Mass spectrometry of the about 27 kDa band identified it as 14-3-3 epsilon, 255 amino acids; also called 14-3-3 protein epsilon; YWHAE
T3 sequence: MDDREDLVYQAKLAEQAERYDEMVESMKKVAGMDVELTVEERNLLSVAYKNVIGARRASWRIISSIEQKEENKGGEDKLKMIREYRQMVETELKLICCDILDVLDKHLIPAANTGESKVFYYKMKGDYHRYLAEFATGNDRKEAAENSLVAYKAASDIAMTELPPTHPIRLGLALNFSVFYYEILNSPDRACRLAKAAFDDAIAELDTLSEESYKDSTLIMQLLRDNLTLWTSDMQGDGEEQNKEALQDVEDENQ

[4] = biological target: T3, human 14-3-3 epsilon isoform 1; experiment: flow cytometry on H23 cells
Description: H23 cells were treated with radiation, 3Gy×3 or 0Gy sham. Cells were then treated with blocking buffer followed by the addition of the 7D4 anti-14-3-3 epsilon monoclonal antibody. Cells were then washed and stained with the secondary antibody conjugated to the fluorescent marker Alexa Fluor 488. Commercial rabbit anti-human 14-3-3 epsilon antibody was used as positive control. Negative controls included 7D4 without secondary antibody and normal mouse IgG with secondary antibody. Shown in FIG. 5 is the percentage of cells staining positive with the anti-14-3-3 antibodies as measured by flow cytometry (FACS).

binding result [1]: binds
binding result [2]: binds
fold increase in binding on 3Gy×3 treated against sham 0Gy treated tumor cells [3]: 6 fold
fold increase in the percentage of cells staining positive after 3Gy×3 [4]: 20 fold
B1: anti-14-3-3 epsilon mouse monoclonal antibody 7D4 (antibody, V domains shown)
VH: QVQLQQSGAELMKPGASVKISCKATGYTFSSYWIEWVKQRPGHGLEWIGEILPGSGSTNYNEKFKGKATFTADTSSNTAYMQLSSLTSEDSAVYYCARSVWLRRDFAYWGQGTLVTVSA
VL: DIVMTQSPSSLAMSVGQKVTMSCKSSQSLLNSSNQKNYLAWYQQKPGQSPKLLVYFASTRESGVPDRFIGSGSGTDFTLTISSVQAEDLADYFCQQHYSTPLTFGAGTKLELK
notes: also called McAb 7D4; 7D4 mAb
